Consider three molecules from patent publication US20210171638A1 (HISUN BIORAY PHARMACEUTICAL, published 2021).

For experiment [1], the target named is T1, Human PD-L1 (R&D) (human, UniProt Q9NZQ7 19-239, limits assumed).
T1 construct: Bought recombinant protein coated on ELISA plates; construct not described; also called human PD-L1 protein
Kind of experiment: ELISA, human PD-L1 coated at 5 µg/ml, anti-human Fc-HRP, OD600. As for the experimental part: (§1) In this Example, ELISA assay was used to determine binding of the candidate antibody to human, monkey, and mouse PD-L1.
(§2) After incubation overnight at 4° C., the coating solution was discarded the next day and washed with PBST. 200 μl of BSA blocking solution was added into each well and incubated for 1 h at room temperature. […] Then 100 μl of antibody was added into each well and incubated for 2 h at room temperature. Washing was performed three times with PBST, and anti-human Fc-HRP antibody (Sino Biological) was added and incubated for 1 h at room temperature. Finally, each well was washed four times with PBST, TMB color developing solution (Beijing Tiangen BioTech) was added, and the color was developed at room temperature. After the color development was stopped, the OD value was determined with a microplate reader at 600 nm.

Experiment [2] concerns the target T2, Monkey PD-L1 (R&D) (monkey).
T2 construct: Bought recombinant protein coated on ELISA plates; construct and monkey species not described; also called monkey PD-L1 protein
Put plainly: ELISA, monkey PD-L1 coated at 5 µg/ml, anti-human Fc-HRP, OD600. Here is the method:
as §1, §2

Experiment [3] has as its target T3, hPD-L1-Fc protein (R&D) (human, UniProt Q9NZQ7 19-239).
T3 construct: construct not described; not shown: Fc part
Kind of experiment: blocking ELISA: hPD-L1-Fc coated at 1 µg/mL, B11 dilutions mixed 1:1 with hPD-1-Fc-Biotin (0.25 µg/mL), avidin-HRP, OD450. On the technique in general: ELISA stands for enzyme-linked immunosorbent assay.

The target of experiment [4] is T4, Mouse PD-L1 (R&D) (mouse, UniProt Q9EP73 19-238, limits assumed).
T4 construct: Bought recombinant protein coated on ELISA plates; construct not described; also called mouse PD-L1 protein
T4 sequence (Q9EP73 19-238 limits assumed): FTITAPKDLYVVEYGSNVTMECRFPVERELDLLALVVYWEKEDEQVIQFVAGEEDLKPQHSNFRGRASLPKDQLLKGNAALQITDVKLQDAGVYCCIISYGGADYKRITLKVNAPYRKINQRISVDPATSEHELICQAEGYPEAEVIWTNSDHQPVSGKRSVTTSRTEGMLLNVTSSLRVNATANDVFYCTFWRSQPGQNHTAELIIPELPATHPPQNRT
Put plainly: ELISA, mouse PD-L1 coated at 5 µg/ml, anti-human Fc-HRP, OD600. As for the experimental part: as §1, §2

The target of experiment [5] is T5, Recombinant His-tagged PD-L1 (Homo sapiens (Human), UniProt Q9NZQ7 19-238).
T5 construct: also called target antigen
T5 sequence (Q9NZQ7 19-238 limits assumed): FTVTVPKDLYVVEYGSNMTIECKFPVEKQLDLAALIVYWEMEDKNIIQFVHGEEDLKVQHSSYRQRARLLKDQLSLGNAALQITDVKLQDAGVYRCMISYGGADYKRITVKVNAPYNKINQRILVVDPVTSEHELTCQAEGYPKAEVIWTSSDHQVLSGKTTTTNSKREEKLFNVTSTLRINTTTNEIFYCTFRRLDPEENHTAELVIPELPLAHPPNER
Kind of experiment: BIAcore SPR, antibody captured by anti-human IgG on CM5 chip, His-tagged PD-L1 as analyte, 1:1 fit. As for the experimental part:
In this Example, BIAcore is used to determine antibody affinity. In this experiment, the human antibody capture kit (GE, BR100839) was used to couple the anti-human IgG antibody to the S series CM5 sensor chip (GE, BR100530) through amino before the ligand and analyte binding. Recombinant anti-PD-L1 antibodies, B10, B11, and H12 were diluted with HBS-EP+Buffer as ligands. The recombinant His-tagged PD-L1 was diluted with HBS-EP+Buffer to 8 μg/ml, 4 μg/ml, 1.6 μg/ml, 0.64 μg/ml, 0.256 μg/ml and 0.102 μg/ml as analytes. In Biacore Wizard mode, affinity analysis experiments were performed in a multi-cycle manner. The test of each sample included 3 Start up, 1 zero concentration control, 6 gradient concentration samples and 1 repeated concentration sample. After each cycle, 10 mM Glycine HCl PH2.1 regeneration solution is used to regenerate the chip. Each concentration cycle of the analyte was set as follows: capture time 180s, ligand solution flow rate 10 μl/min, ligand and analyte binding time 180 s, analyte solution flow rate 30 μl/min; dissociation time 2400 s. Raw data was introduced into the analysis software, the zero concentration control was subtracted, and the reference channel was subtracted to eliminate the volume effect. The 1:1 binding mode in the Kinetics analysis method was used to fit the graph and the affinity data of the antigen antibody was calculated by regression analysis using the analysis software based on the binding curve.
In general terms: SPR reads the build-up and loss of mass on a sensor chip optically.

Experiment [6] addresses T3, hPD-L1-Fc protein (R&D). Put plainly: blocking ELISA: hPD-L1-Fc coated at 1 µg/mL, B11 dilutions mixed 1:1 with CD80-Biotin (0.25 µg/mL), avidin-HRP, OD450.

As a reminder, the EC50 is the concentration at which the effect is half-maximal. Broadly, the Kd is the constant that tells how readily two partners part at equilibrium. The koff is the rate constant with which the complex falls apart. The kon is the rate constant with which the complex forms.

T1 sequence (Q9NZQ7 19-239 limits assumed): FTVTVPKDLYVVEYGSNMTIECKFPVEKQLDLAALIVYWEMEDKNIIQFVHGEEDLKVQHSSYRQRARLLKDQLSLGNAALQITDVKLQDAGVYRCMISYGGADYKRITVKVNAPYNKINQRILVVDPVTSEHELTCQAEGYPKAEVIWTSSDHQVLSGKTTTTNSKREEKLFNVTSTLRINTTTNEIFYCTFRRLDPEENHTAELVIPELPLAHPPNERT
T3 sequence (Q9NZQ7 19-239 limits assumed): as above

B1: Anti-PD-L1 Antibody B11 (antibody, V domains shown)
VH: EVQLVESGGGLVQPGGSLRLSCAASGFTFSETWLHWVRQAPGKGLEWVAWVSPFGGSTYYADSVKGRFTISADTSKNTAYLQMNSLRAEDTAVYYCARRHWPGGFDYWGQGTLVTVSS
VL: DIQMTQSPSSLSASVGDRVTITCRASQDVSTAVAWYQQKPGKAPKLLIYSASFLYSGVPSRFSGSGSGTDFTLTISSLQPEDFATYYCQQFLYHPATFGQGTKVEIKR
notes: also called HZPDL1-B11
In the case of B1, the EC50 in experiment [1] worked out at 1.03 pM; in experiment [2], 0.495 pM; in experiment [4], 0.407 pM. In addition, the figures for the “IC50 (read off the curve)” value in experiment [3] and in experiment [6] were about 0.3 µg/mL and about 0.2 µg/mL, respectively. In addition, the Kd in experiment [5] amounted to 629 pM. The koff in experiment [5] was found to be 0.000857 s⁻¹. The kon in experiment [5] was found to be 1.36e+06 M⁻¹ s⁻¹.

B2: Anti-PD-L1 Antibody H12 (antibody, V domains shown)
VH: EVQLVESGGGLVQPGGSLRLSCAASGFTFSESWLHWVRQAPGKGLEWVAWVTPYGGSTYYADSVKGRFTISADTSKNTAYLQMNSLRAEDTAVYYCARRHWPGGFDYWGQGTLVTVSS
VL: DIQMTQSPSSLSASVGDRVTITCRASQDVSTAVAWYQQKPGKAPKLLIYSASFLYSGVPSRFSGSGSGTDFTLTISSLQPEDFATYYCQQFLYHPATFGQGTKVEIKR
notes: also called HZPDL1-H12
On to B2, for which the EC50 in experiment [1] is 1.4 pM; in experiment [2] it was 0.551 pM; in experiment [4] it was 0.483 pM. The Kd in experiment [5] stood at 2190 pM. The koff in experiment [5] was found to be 0.00261 s⁻¹. Also, in experiment [5], the kon amounted to 1.19e+06 M⁻¹ s⁻¹.

B3: Anti-PD-L1 Antibody B10 (antibody, V domains shown)
VH: not shown
VL: DIQMTQSPSSLSASVGDRVTITCRASQDVSTAVAWYQQKPGKAPKLLIYSASFLYSGVPSRFSGSGSGTDFTLTISSLQPEDFATYYCQQFIFHPATFGQGTKVEIKR
notes: also called HZPDL1-B10
Turning to B3, the EC50 in experiment [1] is 1.97 pM. Also, the midpoint of the response in experiment [2], the EC50, lay at 2.65 pM. The same molecule had an EC50 in experiment [4] of 0.906 pM. For the same molecule, in experiment [5], the Kd worked out at 1640 pM, the koff turned out to be 0.00236 s⁻¹ and the kon was determined as 1.44e+06 M⁻¹ s⁻¹.
